This note sets out measurements from paper PMC6269424.

The conditions of the data set: O-GlcNAc at T84.

Regarding “PPARγ2: adipocyte-specific OGT knockout (FKO)”, the expression_or_secretion result is “decreases”.

PPARγ2: T84A: the expression_or_secretion result is listed as “decreases”.
